From patent US7799901B2, “Modulators of the function of FAS receptors and other proteins” (Yeda Research and Development Co. Ltd., priority 1995, dated 2010)

Columns and labels:
MACHα1 = target: T1, MACHα1 (Homo sapiens, UniProt Q14790); assay: Two-hybrid β-galactosidase filter assay (FIG. 5), binding to MACHα1; conditions: two hybrid test
T1 construct: expressed in transfected cells; host or cells: SFY526 yeast
Method: In FIG. 5, there is shown the results of the interaction of MORT-1 and MACH within transfected yeast cells. Briefly, MORT-1 and MACHβ1 and their deletion constructs, as well as MACHα1, a MACHα1 mutant in which the catalytic cysteine Cys360 is replaced by Ser (MACHα1 (C360S)) and the intracellular domain of human FAS-R (Fas-IC), were expressed within transfected SFY526 yeast in Gal4 DNA binding domain and activation domain constructs (pGBT9 and pGAD-GH). Their interaction was assessed by a β-galactosidase expression filter assay as described in Boldin et al (1995b). The results are presented in terms of the time required for the development of strong color. […] None of the inserts examined interacted with a number of tested negative controls, including the intracellular domains of human p55 TNF receptor, p75 TNF receptor and CD40, and lamin, cyclin D and ‘empty’ Gal4 vectors. MACHβ1 was cloned by two hybrid screening of a Gal4 AD-tagged human B cell library (Durfee et al, 1993) for proteins that bind to MORT-1, using the HF7c Yeast reporter strain. Except where otherwise indicated, all experimental procedures for the findings presented are as described above (see also Boldin et al, 1995). […] MACHβ1 also self-associated in the transfected yeast. […] Expression of MACHβ1 molecules in mammalian cells yielded a 34 kDa protein that bound to MORT-1 molecules co-expressed with it. […]

MORT1DD (130-245) = target: T2, MORT1DD (130-245) (Homo sapiens, UniProt Q13158); assay: Two-hybrid β-galactosidase expression filter assay in SFY526 yeast, DNA-binding domain hybrid MORT1DD (130-245)
T2 construct: 130-245 MORT-1; expressed in transfected cells
T2 sequence (Q13158 82-197): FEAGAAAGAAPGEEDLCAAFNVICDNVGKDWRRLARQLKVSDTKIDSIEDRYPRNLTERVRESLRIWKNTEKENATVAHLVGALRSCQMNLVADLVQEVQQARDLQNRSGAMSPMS
Description: To isolate proteins interacting with the intracellular domain of the FAS-R, the yeast two-hybrid system was used (Fields and Song, 1989). […] In this system, the genes for the candidate interacting proteins are cloned into separate expression vectors. In one expression vector, the sequence of the one candidate protein is cloned in phase with the sequence of the GAL4 DNA-binding domain to generate a hybrid protein with the GAL4 DNA-binding-domain, and in the other vector, the sequence of the second candidate protein is cloned in phase with the sequence of the GAL4 activation domain to generate a hybrid protein with the GAL4-activation domain. The two hybrid vectors are then co-transformed into a yeast host strain having a lacZ or HIS3 reporter gene under the control of upstream GAL4 binding sites. […]
The yeast two-hybrid test was further applied to evaluate the specificity of binding of MACH to MORT-1, in particular, to define the region in MORT-1 to which MACH binds, as well as to determine which of the MACH ORFs interacts with MORT-1, the procedures being as set forth herein above in Examples 1 and 2. Briefly, various MORT-1 and MACH constructs were prepared for testing the interaction of the proteins encoded by the Gal4 DNA-binding domain and activation domain constructs within transfected SFY526 yeast cells as assessed by the β-galactosidase expression filter assay. […]

T1 sequence (Q14790 217-479): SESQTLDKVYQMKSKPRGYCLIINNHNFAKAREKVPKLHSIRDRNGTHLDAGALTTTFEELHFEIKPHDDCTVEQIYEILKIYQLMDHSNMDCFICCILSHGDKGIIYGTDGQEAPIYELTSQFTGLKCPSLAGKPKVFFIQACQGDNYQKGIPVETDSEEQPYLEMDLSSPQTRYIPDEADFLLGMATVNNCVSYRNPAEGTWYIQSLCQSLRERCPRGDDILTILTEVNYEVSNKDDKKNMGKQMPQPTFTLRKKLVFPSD

## MACHα1: MACH isoform, cDNA SEQ ID NO: 14, amino acid SEQ ID NO: 7; contains CED3/ICE homology region
MACHα1
  binding to MACHα1 in transfected yeast (self-interaction): did not exhibit self-interaction

B1: MACHβ1: MACH isoform, cDNA SEQ ID NO: 4, amino acid SEQ ID NO: 5; lacks the CED3/ICE homology region (protein)
chain: MDFSRNLYDIGEQLDSEDLASLKFLSLDYIPQRKQEPIKDALMLFQRLQEKRMLEESNLSFLKELLFRINRLDLLITYLNTRKEEMERELQTPGRAQISAYRVMLYQISEEVSRSELRSFKFLLQEEISKCKLDDDMNLLDIFIEMEKRVILGEGKLDILKRVCAQINKSLLKIINDYEEFSKERSSSLEGSPDEFSNDFGQSLPNEKQTSGILSDHQQSQFCKSTGESAQTSQH
MORT1DD (130-245)
  development of color (interaction with DNA-binding domain hybrid): −−− (“−−−” indicates the lack of development of color within 24 hrs. of the assay)
